This note sets out measurements from article PMC10902354, “Deficiency in PHD2-mediated hydroxylation of HIF2α underlies Pacak-Zhuang syndrome” (Communications Biology, 2024).

This assay has as its target T1, Alexa 647 labeled PHD2 (catalytic / prolyl-hydroxylase domain, residues 181-426) (human, UniProt Q9GZT9 181-426, Alexa Fluor 647 N-hydroxysuccinimide ester dye, 1-2 dye molecules per protein molecule).
T1 construct: PHD2, prolyl-hydroxylase domain (catalytic domain), residues 181-426, from pET-46-HIS6-PHD2; Same construct as m2, dye-labeled for MST; also called PHD2-647; source: E. coli BL21(DE3), purified (Ni-NTA, thrombin cleavage, Superdex 75), labeled with Alexa Fluor 647 NHS ester
Briefly: MST; 25 nM Alexa 647 labeled PHD2, unlabeled peptide in 16 two-fold dilutions; room temperature; MST Buffer 50 mM Tris-HCl pH 7.5, 1 mM NOG, 10 µM FeSO4, 5 mg/ml BSA mixed 1:1 with peptide in 50 mM Tris-HCl pH 8.0; 1:1 Kd model; triplicate. Conditions: both partners purified.

T1 sequence (Q9GZT9 181-426): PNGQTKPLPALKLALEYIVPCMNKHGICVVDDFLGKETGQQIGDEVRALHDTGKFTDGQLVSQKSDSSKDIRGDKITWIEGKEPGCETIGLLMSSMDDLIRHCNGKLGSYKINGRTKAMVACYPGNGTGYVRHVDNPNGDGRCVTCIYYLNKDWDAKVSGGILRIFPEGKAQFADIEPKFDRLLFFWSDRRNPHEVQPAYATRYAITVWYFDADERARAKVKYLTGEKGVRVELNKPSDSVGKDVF

B1: HIF2α-CODD ΔG537 peptide (peptide, UniProt Q99814 523-542, looked up)
peptide: Ac-ELDLETLAPYIPMDEDFQL-NH2
notes: HIF2α (EPAS1) CODD peptide, human, as m3 without G537; also called HIF2α ΔG537; source: synthetic peptide (Genscript, ≥95% purity)
Broadly, the Kd is the equilibrium constant for the complex coming apart. High values mean a looser complex, low ones a tighter complex. In the case of B1, the dissociation constant (Kd) was 13 ± 2 µM.
